The text below walks through data of patent publication US20070219354.

This data set addresses T1, coumarin-CO-REVNFEVEFR
T1 chain: REVNFEVEFR

B1: BACE 1, soluble (transmembrane domain and cytoplasmic extension excluded) human protein produced in a baculovirus expression system (protein)
chain: TQHGIRLPLRSGLGGAPLGLRLPRETDEEPEEPGRRGSFVEMVDNLRGKSGQGYYVEMTVGSPPQTLNILVDTGSSNFAVGAAPHPFLHRYYQRQLSSTYRDLRKGVYVPYTQGKWEGELGTDLVSIPHGPNVTVRANIAAITESDKFFINGSNWEGILGLAYAEIARPDDSLEPFFDSLVKQTHVPNLFSLQLCGAGFPLNQSEVLASVGGSMIIGGIDHSLYTGSLWYTPIRREWYYEVIIVRVEINGQDLKMDCKEYNYDKSIVDSGTTNLRLPKKVFEAAVKSIKAASSTEKFPDGFWLGEQLVCWQAGTTPWNIFPVISLYLMGEVTNQSFRITILPQQYLRPVEDVATSQDDCYKFAISQSSTGTVMGAVIMEGFYVVFDRARKRIGFAVSACHVHDEFRTAAVEGPFVTLDMEDCGYNIPQTDESTLMT
On to B1, for which the “substrate processed (end point HPLC assay, 2 nM enzyme, 1.0 µM substrate, 30 min)” value is “less than 10% of substrate is processed by BACE 1”.
